This data set concerns the molecule itself. As to the kind of experiment: TIRF microscopy of filament lengths at steady state.

The text below walks through data of doi:10.1101/2021.03.22.436414 (bioRxiv, 2021).

B1: Recombinant S. cerevisiae septin octamer capped with Cdc11-SNAP (Cdc11-Cdc12-Cdc3-Cdc10-Cdc10-Cdc3-Cdc12-Cdc11) (complex)
chain 1: MSGIIDASSALRKRKHLKRGITFTVMIVGQSGSGRSTFINTLCGQQVVDTSTTILLPTDTSTEIDLQLREETVELEDDEGVKIQLNIIDTPGFGDSLDNSPSFEIISDYIRHQYDEILLEESRVRRNPRFKDGRVHCCLYLINPTGHGLKEIDVEFIRQLGSLVNIIPVISKSDSLTRDELKLNKKLIMEDIDRWNLPIYNFPFDEDEISDEDYETNMYLRTLLPFAIIGSNEVYEMGGDVGTIRGRKYPWGILDVEDSSISDFVILRNALLISHLHDLKNYTHEILYERYRTEALSGESVAAESIRPNLTKLNGSSSSSTTTRRNTNPFKQSNNINNDVLNPASDMHGQSTGENNETYMTREEQIRLEEERLKAFEERVQQELLLKRQELLQREKELREIEARLEKEAKIKQEE
chain 2: MSAATATAAPVPPPVGISNLPNQRYKIVNEEGGTFTVMLCGESGLGKTTFINTLFQTVLKRADGQQHRQEPIRKTVEIDITRALLEEKHFELRVNVIDTPGFGDNVNNNKAWQPLVDFIDDQHDSYMRQEQQPYRTKKFDLRVHAVLYFIRPTGHGLKPIDIETMKRLSTRANLIPVIAKADTLTAQELQQFKSRIRQVIEAQEIRIFTPPLDADSKEDAKSGSNPDSAAVEHARQLIEAMPFAIVGSEKKFDNGQGTQVVARKYPWGLVEIENDSHCDFRKLRALLLRTYLLDLISTTQEMHYETYRRLRLEGHENTGEGNEDFTLPAIAPARKLSHNPRYKEEENALKKYFTDQVKAEEQRFRQWEQNIVNERIRLNGDLEEIQGKVKKLEEQVKSLQVKKSHLK
chain 3: MSLKEEQVSIKQDPEQEERQHDQFNDVQIKQESQDHDGVDSQYTNGTQNDDSERFEAAESDVKVEPGLGMGITSSQSEKGQVLPDQPEIKFIRRQINGYVGFANLPKQWHRRSIKNGFSFNLLCVGPDGIGKTTLMKTLFNNDDIEANLVKDYEEELANDQEEEEGQGEGHENQSQEQRHKVKIKSYESVIEENGVKLNLNVIDTEGFGDFLNNDQKSWDPIIKEIDSRFDQYLDAENKINRHSINDKRIHACLYFIEPTGHYLKPLDLKFMQSVYEKCNLIPVIAKSDILTDEEILSFKKTIMNQLIQSNIELFKPPIYSNDDAENSHLSERLFSSLPYAVIGSNDIVENYSGNQVRGRSYPWGVIEVDNDNHSDFNLLKNLLIKQFMEELKERTSKILYENYRSSKLAKLGIKQDNSVFKEFDPISKQQEEKTLHEAKLAKLEIEMKTVFQQKVSEKEKKLQKSETELFARHKEMKEKLTKQLKALEDKKKQLELSINSASPNVNHSPVPTKKKGFLR
chain 4: MDPLSSVQPASYVGFDTITNQIEHRLLKKGFQFNIMVVGQSGLGKSTLINTLFASHLIDSATGDDISALPVTKTTEMKISTHTLVEDRVRLNINVIDTPGFGDFIDNSKAWEPIVKYIKEQHSQYLRKELTAQRERFITDTRVHAILYFLQPNGKELSRLDVEALKRLTEIANVIPVIGKSDTLTLDERTEFRELIQNEFEKYNFKIYPYDSEELTDEELELNRSVRSIIPFAVVGSENEIEINGETFRGRKTRWSAINVEDINQCDFVYLREFLIRTHLQDLIETTSYIHYEGFRARQLIALKENANSRSSAHMSSNAIQR
modifications: Alexafluor488 dye on the SNAP tag
Broadly, the Kd is a measure of binding affinity in units of concentration. Read a high Kd as lower affinity. In turn, B1 returned a Kd of 84.5 ± 8.5 nM.
